In the DeepSol protein solubility set:

test: soluble on expression in E. coli; label from the status in PepcDB or PDB records

| Sequence | soluble on expression in E. coli |
| --- | --- |
| MTSNDADIKATVCVVTYNQVEYIEQCLQSLIDQITNFEFEIIVGDDFSTDGTRRIVEDFQRKYPHVIKPIFHSRNVGAAVNFNAVHGSARGKFVAHVDGDDYMLPNKLRSQVDFMERNPNCNISWHRMYVSYGSNIKEDLLDLNNFRQLCFTRADILKFITIGMNSSKMYRAETMNFQRPDFPMLDYFANVEQIGDGQACFISSEPLGVYRAGIGIAKNDFRVKEALNSSFLYFLSKYPKLSNEINQSVLLLLLMAFKNRRYTELSLFLKVYLKSFSFFTPWKLYKDYEFIKMLRLPKLEHHHHHH | not soluble |
| VFIDESKEHLQTCNEKLLLLEKDPTDLQLVHDIFRAAHTLKGMSATMGYTDLAHLTHLLENVLDAIRNGDMEVTSDWLDILFEALDHLETMVQSIIDGGDGKRDISEVSAKLDVNGAHAESAASAEPAEAQSSASDWEYDEFERTVIQEAEEQGFKRYEIKISLNENCMLKAVRVYMVFEKLNEVGEVAKTIPSAEVLETEDFGTDFQVCFLTHQSAEDIEQLINGVSEIEHVEVIQGAPLTSAEKPEESKQEDSPAAAVPANEEKQKQPAKNDEQAKHSAGGSKTIRVNIDRLDSLMNLFEELVIDRGRLEQIAKELEHNELTETVERMTRISGDLQSIILNMRMVPVETVFNRFPRMIRQLQKELNKKIELSIIGAETELDRTVIDEIGDPLVHLIRNSIDHGIEAPETRLQKGKPESGKVVLKAYHSGNHVFIEVEDDGAGLNRKKILEKPLERVITEKEAETLEDNQIYELIFAPGFSTADQISDISGRGVGLDVVKNKLESLGGSVSVKSAEGQGSLFSIQLPLTLSIISVLLIKLEEETFAIPISSIIETAVIDRKDILQTHDREVIDFRGHIVPVVYLKEEFKIEDTRKDAEQLHIIVVKKGDKPTAFVVDSFIGQQEVVLKSLGDYLTNVFAISGATILGDGEVALIID | not soluble |
| MPERFVEMLREENGKIIVRIPGETARYANLEGKEGEYLLVDLVKVFDPHLKLPTHSIGEKAICRTVTFRDNRGYEHLGLEIPQELVNDYGMKAGEYLEAVIEHAILRDKIAAVYPNLEILNQYPYWWRKISQ | not soluble |
| MSLTNDYRFEFRPYQRRFLRSLTTNHGKWDIREGIILRLTDETLRVGWGEIAPISWFGSETLEQVLDFCRQLPGEITDETIFSIPDELPACQFGFESAWEWGSWKWGNEFFSMPNAQCPMPNAQSFSALLPFGEAALNQWETLWQKGYRTFKWKIGVDAIADELKIFESLTRILPASTKLRLDANGGLSYEEANLWLRTCDNLKANAELPLEIEFIEQPLPVEQFQQMLELSTSYETAIALDESVATLKQLAACHQQGWREIFVIKPGIVGSPSRLRKFCHQHQIDTVFSSVLETAIGRLAALQIAAELSRNNRAIGFGIDHFFEQEETWFQTLWNDLEGHHHHHH | soluble |
| MGSDKIHHHHHHVDALEVHRFLKGKIRTALPVEKVDRETLSLLYTPGVADVARACAEDPEKTYVYTSRWNTVAVVSDGSAVLGLGNIGPYGALPVMEGKAFLFKAFADIDAFPICLSESEEEKIISIVKSLEPSFGGINLEDIGAPKCFRILQRLSEEMNIPVFHDDQQGTAVVVSAAFLNALKLTEKKIEEVKVVVNGIGAAGYNIVKFLLDLGVKNVVAVDRKGILNENDPETCLNEYHLEIARITNPERLSGDLETALEGADFFIGVSRGNILKPEWIKKMSRKPVIFALANPVPEIDPELAREAGAFIVATGRSDHPNQVNNLLAFPGIMKGAVEKRSKITKNMLLSAVEAIARSCEPEPERIIPEAFDMKVHLNVYTAVKGSA | soluble |
| YMVPGLWGAPLKAVSAFAPPMKTQDFNLYTNEVHAKFDDYDLGMEYARQHNKPVMLDFTGYGCVNCRKMELAVWTDPKVSSIINNDYVLITLYVDNKTPLTEPVKIMENGTERTLRTVGDKWSYLQRVKFGANAQPFYVLIDNEGNPLNKSYAYDEDISKYINFLQTGLENYRKEK | not soluble |
| EEKYVTVQPYTSQSKDEIGFEKGVTVEVIRKNLEGWWYIRYLGKEGWAPASYLKKAKD | soluble |
| MIERSLNATEKAIESIREGELVRRHTDLELRDMQISMNEDFDRIRGMMHELDEQIHKDRSGNSKWMNQKMEKAKATADQALASTLMVKDVQLLEKKVNILKESVVQVNKSFYKYEKDVDMNDLMDQVIDMVHRTEKKEQDALEAHATDEQAIGKAFRGAIEGLYGLKSSNSKVMEEAKLLAGEMRVFRDAASNKNFHTMISRIASNTATSGVPLKYSSGPESSFSTSAYTSFSKSANNSSMSGSN | not soluble |
| MLVMIDTKRPPVYIDSQVGLNTFFFIRGQYPSLNLFVSFITTVKTLGNNVSRTHGDDAESDCVCDSVSNVDENNEVVDEQDDVEDDKTDEDEEEGDNEDGDGYDAY | not soluble |
| MAHHHHHHMGTLEAQTQGPGSMSVRVAINGFGRIGRNILRAIIESGRQDIEVVALNDLGSVETNAHLLRYDSVHGCFPGTVQVVGDAIDIGSSLIKVFAERDPAQLPWKALDIDIALECTGIFTARDKASAHLDAGAKRVLVSAPSEGADLTVVYGVNHQFLSKEHHVISNASCTTNCLAPVAQVLHNTVGIEKGFMTTIHSYTGDQPVLDTMHRDLYRARAAALSMIPTSTGAAKAVGLVLPELKGLLDGVSIRVPTPNVSVVDLTFTAKRSTTIEEINTAIRTAAQGSLKGILDYTDEKLVSCDFNHNPHSAIFHNDQTKVIDGQLCRVLVWYDNEWGFSNRMCDTAVAFAKTI | soluble |
| MAHHHHHHMSSQAQQRAPAYAPRDTHAERLAAADREAAARRDSSTNWTWYPEYHLAPYMGWMNDPTGLVHFRDHYHVFYQYHPYSAEWGPMHWGHMTSEDLVHWQHEKVALAPGDACDRNGCFSGTAVVHEDRMYVFYTGHFALDAATPSNPDAIFEQQCVAVSSDGVNFEKLGAVVRPPPGYVHFRDPKVWQQDGRWWMVCGARDVTKDLGQLLLFTTEDLLKWDDTNWQVLGMTEDKNVFMWECPDYFTIGSREDMKLLLFCPQGKKASEYNYRNRFQNGYTVGQWMPGGPWTVQREFRELDRGHDFYAAQTFLAADGQRRMLMAWCNMWESPMPTKQYGWSGCLTLPRELSYNEATGQLCMLPARELVGLRTPEMMIVPSLLVENNSDAQILENCTAYELDIAFNMETSTAEKYGLWLGSGAELYVDAQSKRLVLNRHYPQHMLSGYRSCELPIGLLLQLHVFIDRSSIEVFVNNGEATFSSRVFPDEGDRALRVFSVNGTADMVGGTMWKLKATVRH | not soluble |
| MKVNNTIVVSIGQAGNQIAASFWKTVCLEHGIDPLTGQTAPGVAPRGNWSSFFSKLGESSSGSYVPRAIMVDLEPSVIDNVKATSGSLFNPANLISRTEGAGGNFAVGYLGAGREVLPEVMSRLDYEIDKCDNVGGIIVLHAIGGGTGSGFGALLIESLKEKYGEIPVLSCAVLPSPQVSSVVTEPYNTVFALNTLRRSADACLIFDNEALFDLAHRKWNIESPTVDDLNLLITEALAGITASMRFSGFLTVEISLRELLTNLVPQPSLHFLMCAFAPLTPPDRSKFEELGIEEMIKSLFDNGSVFAACSPMEGRFLSTAVLYRGIMEDKPLADAALAAMREKLPLTYWIPTAFKIGYVEQPGISHRKSMVLLANNTEIARVLDRICHNFDKLWQRKAFANWYLNEGMSEEQINVLRASAQELVQSYQVAEESGAKAKVQDSAGDTGMRAAAAGVSDDARGSMSLRDLVDRRR | soluble |
| MGSDKIHHHHHHMIQQKVRVGLLGVGLDTYWGQFEGLLPRLLTYQDEIAAKIEAMDVQVINTGMVDSPLKANECVLQLKQADVELVFLFISTYALSSTILPVAQQVGKPIIILNIQPASAIDYQKLNSMGDRGRMTGEWLAHCQACSVPEFASVLNRAGVRYDIITGYLSEDYVWEEIASWVDAVRVMYGMRTSRLGVLGHYYCGMLDVYTDLMKQSAVFGTHIELLEMCELKAYREEVSDGELKRKLDEFYDKFNVEASCSSEELVRAARTSVALDKLVNVHQLGAMAYYYEGFCGNDYENIVTSVIAGNTLLTGYGIPVAGECEVKNAQAMKIMSLLKAGGSFSEFYAMDFKDDIVLLGHDGPAHFAIAEEKVKLVPLPLYHGKPGKGLSIQMSVKPGDVTLLSVCEGRDGVFLLAAEGEAVQGETLHIGNTNSRYRFPCGARRFMDQWSKAGPSHHCAIGIGHKVSELKKLAFLLDIPIIVVE | not soluble |
| AIASFRTCHNWFPLCLLLKETNNDISGEGIYSSRSELFQQPLAKETQRWSTGPSFVKHYGRLKRHSLPAVHFFDNSQSFLQNLQPNETFPETTTLDWKELENATRLLNDFMESASEDGDSLFDDEFPTMHAKTKLQDGLSTHPQSPPSDITQSVLSNTQSPVPSMLSETELPDFGEDFVNANEELVS | soluble |
| MDIKVHFHDFSHVRIDCEESTFHELRDFFSFEADGYRFNPRFRYGNWDGRIRLLDYNRLLPFGLVGQIKKFCDNFGYKAWIDPQINEKEELSRKDFDEWLSKLEIYSGNKRIEPHWYQKDAVFEGLVNRRRILNLPTSAGRSLIQALLARYYLENYEGKILIIVPTTALTTQMADDFVDYRLFSHAMIKKIGGGASKDDKYKNDAPVVVGTWQTVVKQPKEWFSQFGMMMNDECHLATGKSISSIISGLNNCMFKFGLSGSLRDGKANIMQYVGMFGEIFKPVTTSKLMEDGQVTELKINSIFLRYPDEFTTKLKGKTYQEEIKIITGLSKRNKWIAKLAIKLAQKDENAFVMFKHVSHGKAIFDLIKNEYDKVYYVSGEVDTETRNIMKTLAENGKGIIIVASYGVFSTGISVKNLHHVVLAHGVKSKIIVLQTIGRVLRKHGSKTIATVWDLIDDAGVKPKSANTKKKYVHLNYLLKHGIDRIQRYADEKFNYVMKTVNLLEHHHHHH | soluble |
| MTKQDQLIVEKMEQTYEAFSPKLANLIEALDAFKEHYEEYATLRNFYSSDEWFRLANQPWDDIPCGVLSEDLLFDMIGDHNQLLADILDLAPIMYKHM | not soluble |
| MGSDKIHHHHHHMLVYPSGIDLSTSTLRYLSDLLRARRRERGTRWRRLTTDRQALLALAHLRCGHTYAQLAAGFGIGLATVYRYIVEAVEVLAALAPTLQQAMTFAANKAFVILDGTLLHIDRIAADRPYYSGKHKRHGMNVQVIADAFGRLLWASPALPGAVHDIKAARIHGIIEALTQAGIRTWADKGYQGAQGTIRVPYRGRWSTLPAGKRAVNSSHAKIRAVGEQANATLKSWRLLRKLRCSTTRITDIVKAVLALHLATAA | not soluble |
| AIAGNTTSERVSGERHGAKAARAEGGGHGPGKEHKIMVGSTDDPSVFSLPDSKLPGDKEFVPWQQDLDDSVKPAQQARPTVIRWSEGGKEVFISGSFNNWSTKIPLIKSHNDFVAILDLPEGEHQYKFFVDGQWVHDPSEPVVTSQLGTINNLIHVKKSDFEVFDALKLDSMESSETSCRDLSSSPPGPYGQEMYVFRSEERFKSPPILPPHLLQVILNKDTNISCDPALLPEPNHVMLNHLYALSIKDSVMVLSATHRYKKKYVTTLLYKPI | soluble |
| MGSDKIHHHHHHMSLPGSKLEEARRLVNEKQYNEAEQVYLSLLDKDSSQSSAAAGASVDDKRRNEQETSILELGQLYVTMGAKDKLREFIPHSTEYMMQFAKSKTVKVLKTLIEKFEQVPDSLDDQIFVCEKSIEFAKREKRVFLKHSLSIKLATLHYQKKQYKDSLALINDLLREFKKLDDKPSLVDVHLLESKVYHKLRNLAKSKASLTAARTAANSIYCPTQTVAELDLMSGILHCEDKDYKTAFSYFFESFESYHNLTTHNSYEKACQVLKYMLLSKIMLNLIDDVKNILNAKYTKETYQSRGIDAMKAVAEAYNNRSLLDFNTALKQYEKELMGDELTRSHFNALYDTLLESNLCKIIEPFECVEISHISKIIGLDTQQVEGKLSQMILDKIFYGVLDQGNGWLYVYETPNQDATYDSALELVGQLNKVVDQLFEKASVLY | not soluble |
